# Laboratory results: PMC9657007
# Biological target: T1, EcxR (Ehrlichia chaffeensis) (UniProt Q2GG40)
# T1 sequence: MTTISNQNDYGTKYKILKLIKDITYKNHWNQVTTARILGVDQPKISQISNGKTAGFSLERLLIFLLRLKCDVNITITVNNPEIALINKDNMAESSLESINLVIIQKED
# Assay: EMSA
# Conditions: EMSA: 10 mM Tris-HCl pH 7.5, 50 mM KCl, 5 mM MgCl2, 2.5% glycerol, 1 mM DTT, 50 ug/mL poly dI-dC, 20 fmol probe, room temperature 25 min (20 min in Fig …)
row,Sequence,binding
1,ATATAACCTAATAGTGACAAATAAATTAACAATAGTAGAAGTGTCATATAAAAGCAAGTCAGAATATAAATTTTTGTATAAAATATCGGTAACTTTTGTAAGGAAAATTTAATATATTACGTCAG (double strand) [p28-Omp19-P3],binds
2,CAGGAGTTACTCCATGTGCAAGTAGTATCTTGTAAACACTAGTGTCTTTAACAACTGCAAGAGCTTGTAATAATCTCTCCACAGTTACATAAGTATCCTGATTCCTTTTTGCTAAACTAATAGCTTCTTCTAAAACCTGAGCCATTTCTTTTGATAAATGTATATGACCACTACCACTTCCACTTACAACAGGTAATTTACTTAAGGAGAGTTTTATATCACTGTATATCTTATCAATATCACATCCACATGAAGTCAGCAACA (double strand) [clpB-ORF],no binding
3,CTTTTGTAAGGAAAATTTAATATATTACGTCAGGTAAGTAATAGCAAAAAAACTGGTTAAGTATAGTATCATGTGTAAAGGTGAGAAAAACAGCAC (double strand) [p28-Omp19-P2],binds
4,GACTCTAGACTTTTAATTTTATTATTGCCACATGTTAAAAATAATCTAAACTTGTTTTTATTATTGCTGCAGGTAAATAAAAATAGTGGCAAAAGAATGTAGCAATAAGAGGGGGGGGGGGGGGACTAGTTTATAAGTGC (double strand) [p28-Omp19-P1],no binding
5,GATTAATAGATTCTAGGGAACTCTCTGCCATATTGTCTTTGTTAATTAATGCAATTTCTGGGTTATTGACAGTGATTGTTATATTCACATCACATTTTAGACGTAACAAAAATATAAGTAAACGTTCTAATGAAAATCCTGCTGTTTTACCATTACTAATCTGAGATATTTTTGGTTGGTCTACGCCCAGTATCCTTGCTGTGGTTACTTGGTTCCAGTGATTCTTA (double strand) [ecxR-ORF],no binding
6,GGATAAGTACTTTAGCAAGTGGTAAAAGCAAGTCTACTCATATTTTTATTAATTAAGTAGTAAAGTTAACTATAGATTTTATTAAAATTTTTATTCTAATCACTTTAAATATCAATTACTTTTGTTGTAAATTTGAAAGAAATTTTATATTCTAGAC (double strand) [p28-Omp14-P5],no binding
7,GGTGTTTTTATAATTTTATTACTAAGATATTTTTTTATTAATAACTATATGCCAATACAGATAGTATAAGTATCTTATAATAAATCCATCATCTTAATGTAAGTAATACATATAACTAATAACAATAATATATTAACATTTTTATAGAATATCTATCATAATCAAACATTAACTAAATTCTCTACTAGCAGTAAATTGAATATCTACAATTTACACGTTCTACTGTTTTGCTTGCCAACTTAATTGATACTGCTTATCATCTGAATATCAAAAGATGATAGGGTACTGT (double strand) [clpB promoter EMSA probe],binds
8,GGTTTAGCCATTTTAAATGTGTTTAAAAAGAAATCTTTTTGACATTATTGTAAACTTATGATTTTTATTAAGGGGAAGAGTGAACAAAATACTGTTATTAGAAGTTTACAGAAAGTTAACTG (double strand) [p28-Omp14-P2],no binding
9,GTACCTAAATCTATACCTATAACAGCCATAAATAGCCCCCTTACATAAAAATCAAAACTATAATCACAGATATAATAACCAAATCATAAGATTACAACCCCATTTAACACAAGTTCATAAATTTATGAA (double strand) [dnaK promoter EMSA probe],binds
10,GTTCCGTATTTATTAATATATGTTATAATGTAATTAAATAAGGATACTAGATTTGCTCATAATGCATGTACTGAATTTGTGATTTGAAATAACAAGACTTAAATGTCGAATTTAGCTTCTGTCCTAGTGGATAAGTACTTTAGCAAGTGGTAAAAGCAAGTCTACTCATATTTTTATTAATTAAGTAGTAAAGTTAACTATAG (double strand) [p28-Omp14-P4],binds
11,GTTTTCTGCTTTATTAGAATGATTCCCAAATAAATTTTAATTAATTACTGTTCCGTATTTATTAATATATGTTATAATGTAATTAAATAAGGATACTAGATTTGCTCATAATGCATGTAC (double strand) [p28-Omp14-P3],binds
12,TAACTTACTTAAAAAATTAACTACTTAAATATCAACGATGTTTTCAGTATCAAGTCAATTGATTTTTTATGTGTTATGTAAACTGTTACAGAGTAATATAATATTTCTACTGGGTCCTATAAAGTTCTAACCTTGTAAACATTTGTGCAATATGTATTATAAAATTTATTGATTGATACTTGAAATTAGATTTCTTGATATTATATATGATCTTAGCTAGTAGTATCTGATGCTACTGATAATTTATTTTTTTATAGAGGTAG (double strand) [groES/L promoter EMSA probe],binds
13,TTGCTCAACCATAAAATAATGGGAAATTACCTTTTCTAGGAAGTTTCTCATTATTTAACAGTTAACTTTCTGTAAACTTCTAATAACAGTATTTTGTTCACTCTTCCCCTTAATAAAAATCATAAGTTTACAATAATGTCAAAAAGATTTCTTTTTAAACACATTTAAAATGGCTAAACC (double strand) [p28-Omp14-P1],binds

# Biological target: T2, Tr1 (Ehrlichia chaffeensis) (UniProt Q2GF81)
# T2 sequence: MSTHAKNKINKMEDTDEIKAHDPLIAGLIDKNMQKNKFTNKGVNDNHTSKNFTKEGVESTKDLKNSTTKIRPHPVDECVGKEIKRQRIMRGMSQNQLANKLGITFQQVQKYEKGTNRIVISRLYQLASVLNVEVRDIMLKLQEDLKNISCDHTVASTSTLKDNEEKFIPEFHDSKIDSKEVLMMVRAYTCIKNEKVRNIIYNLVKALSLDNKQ
# Assay: Southwestern blot
# Conditions: EMSA: 10 mM Tris-HCl pH 7.5, 50 mM KCl, 5 mM MgCl2, 2.5% glycerol, 1 mM DTT, 50 ug/mL poly dI-dC, 20 fmol probe, room temperature 25 min (20 min in Fig …)
row,Sequence,binding
1,TACCCGGACAAACTGACTTTCATGTTTAATATAAATTATTGATCCAATCAAGCTAAAAAGTAAATAAATTTTATCTTATATTTCATAAAGCATAATATGTTATTTCTGTATATTATATAATTAGTATACTATTCCAGCAAACTAGATAGAATATATCCATTAAATAACTATTGCATTCACTTTATGCATGATTTATCTTACATAGGTTGCTTTGT (double strand) [tr1 promoter (SWB probe)],binds

# Biological target: T1, EcxR (Ehrlichia chaffeensis)
# Assay: Southwestern blot
# Conditions: EMSA: 10 mM Tris-HCl pH 7.5, 50 mM KCl, 5 mM MgCl2, 2.5% glycerol, 1 mM DTT, 50 ug/mL poly dI-dC, 20 fmol probe, room temperature 25 min (20 min in Fig …)
row,Sequence,binding
1,CTACCTCTATAAAAAAATAAATTATCAGTAGCATCAGATACTACTAGCTAAGATCATATATAATATCAAGAAATCTAATTTCAAGTATCAATCAATAAATTTTATAATACATATTGCACAAATGTTTACAAGGTTAGAACTTTATAGGACCCAGTAGAAATATTATATTACTCTGTAACAGTTTACATAACACATAAAAAATCAATTGACTTGATACTGAAAACATCGTTGATATTTAAGTAGTTAATTTTTTAAGTAAGTTAGCATGCGCTG (double strand) [groES/L promoter (SWB probe)],binds
2,GGTGTTTTTATAATTTTATTACTAAGATATTTTTTTATTAATAACTATATGCCAATACAGATAGTATAAGTATCTTATAATAAATCCATCATCTTAATGTAAGTAATACATATAACTAATAACAATAATATATTAACATTTTTATAGAATATCTATCATAATCAAACATTAACTAAATTCTCTACTAGCAGTAAATTGAATATCTACAATTTACACGTTCTACTGTTTTGCTTGCCAACTTAATTGATACTGCTTATCATCTGAATATCAAAAGATGATAGGGTACTGT (double strand) [clpB promoter (SWB probe)],binds
3,GTACCTAAATCTATACCTATAACAGCCATAAATAGCCCCCTTACATAAAAATCAAAACTATAATCACAGATATAATAACCAAATCATAAGATTACAACCCCATTTAACACAAGTTCATAAATTTATGGCATGCGCTG (double strand) [dnaK promoter (SWB probe)],binds
4,TACCCGGACAAACTGACTTTCATGTTTAATATAAATTATTGATCCAATCAAGCTAAAAAGTAAATAAATTTTATCTTATATTTCATAAAGCATAATATGTTATTTCTGTATATTATATAATTAGTATACTATTCCAGCAAACTAGATAGAATATATCCATTAAATAACTATTGCATTCACTTTATGCATGATTTATCTTACATAGGTTGCTTTGT (double strand) [tr1 promoter (SWB probe)],binds
